Legend:
[1] = target: HECT domain of HUWE1 (residues 3993-4374), wild type (human) (UniProt Q7Z6Z7); experiment: covalent labelling with an activity-based probe (SDS-PAGE, Coomassie); 10 μM E3 and 100 μM Ub-Prg in 50 mM HEPES, 100 mM NaCl, pH 8.0 at 30 °C, quenched with SDS loading dye; only the covalent (vinyl thioether) product is seen
[2] = target: HECT domain of NEDD4-1 (514-900) (UniProt P46934); experiment: as above
UniProt P46934, sequence (P46934 933-1319): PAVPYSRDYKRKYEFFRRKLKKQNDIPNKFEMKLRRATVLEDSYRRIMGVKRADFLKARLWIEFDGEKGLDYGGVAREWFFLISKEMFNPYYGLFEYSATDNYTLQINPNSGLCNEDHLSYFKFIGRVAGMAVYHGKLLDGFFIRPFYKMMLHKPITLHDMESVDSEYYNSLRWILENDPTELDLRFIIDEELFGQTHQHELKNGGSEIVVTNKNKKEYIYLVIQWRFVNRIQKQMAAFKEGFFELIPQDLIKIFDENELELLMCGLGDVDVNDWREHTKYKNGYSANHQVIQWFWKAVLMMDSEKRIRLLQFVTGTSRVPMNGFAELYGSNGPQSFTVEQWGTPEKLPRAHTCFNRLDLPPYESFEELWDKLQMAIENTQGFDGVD

UniProt Q7Z6Z7, sequence (Q7Z6Z7 3993-4374): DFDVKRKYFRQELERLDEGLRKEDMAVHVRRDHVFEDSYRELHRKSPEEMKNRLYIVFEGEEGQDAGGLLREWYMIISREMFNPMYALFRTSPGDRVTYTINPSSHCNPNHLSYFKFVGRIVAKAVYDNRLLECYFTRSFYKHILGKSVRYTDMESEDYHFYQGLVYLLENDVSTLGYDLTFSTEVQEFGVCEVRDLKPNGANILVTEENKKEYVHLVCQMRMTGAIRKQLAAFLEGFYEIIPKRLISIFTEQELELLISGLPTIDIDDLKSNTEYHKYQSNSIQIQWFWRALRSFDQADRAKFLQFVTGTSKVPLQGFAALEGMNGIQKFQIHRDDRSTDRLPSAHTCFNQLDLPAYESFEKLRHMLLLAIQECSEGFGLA

Substance: ubiquitin-propargylamine
- stoichiometry N [1]: 1
- stoichiometry N [2]: 1

Source: publication PMC8453484
